Measured values published in PMC5127646, “Structural basis for the recognition of spliceosomal SmN/B/B’ proteins by the RBM5 OCRE domain in splicing regulation” (eLife, 2016).

B1: RBM5 OCRE domain (residues 451-511), wild type (domain or fragment, human)
chain: GAMGTKYAVPDTSTYQYDESSGYYYDPTTGLYYDPNSQYYYNSLTQQYLYWDGEKETYVPAAES
notes: tripeptide left by the TEV cleavage; 15N- or 13C,15N-labelled in the NMR experiments; also called RBM5_OCRE WT; source: E. coli BL21, purified (Ni-NTA, TEV cleavage, gel filtration); not shown: His6, N-terminal, cleaved

target: B1; assay: NMR structure; solution structure; 2 mM ^13C,^15N-labeled OCRE with 14 mM unlabeled SmN 219-229 peptide, 298 K; 109 intermolecular NOE restraints; details: both partners purified

| Binder | binding result |
| --- | --- |
| GMRPPPPGIRG (source: synthetic peptide (Peptide Specialty Laboratory, Heidelberg)) [SmN peptide, residues 219-229 (GMRPPPPGIRG)] | binds |

target: B1; assay: ITC; Sm tail constructs with wild type OCRE; SmN constructs (1 mM) titrated into OCRE (100 μM); ITC200, 24°C, 20 mM sodium phosphate pH 6.5, 50 mM NaCl; duplicates; details: both partners purified

| Kd | Binder |
| --- | --- |
| 192 µM | SmN 167-240 4P/3P→4G/3G (domain or fragment) not shown |
| 29 µM | SmN 167-240 4P→4A (domain or fragment) not shown |
| 195 µM | SmN residues 167-196 (domain or fragment, source: E. coli BL21, purified (Ni-NTA, TEV cleavage, gel filtration); not shown: His6, N-terminal, cleaved; GST, N-terminal, cleaved) not shown |
| 103 µM | SmN 167-240 4P/3P→4A/3A (domain or fragment) not shown |

target: T1, SmN C-terminal tail, residues 167-240 (complete proline-rich region), wild type (human, UniProt P63162 167-240); assay: as above; details: both partners purified
T1 construct: The ITC methods print 168-240 for this construct; also called SmN_167-240 WT; source: E. coli BL21, purified (Ni-NTA, TEV cleavage, gel filtration); not shown: His6, N-terminal, cleaved; GST, N-terminal, cleaved

| Kd | Binder |
| --- | --- |
| 41 µM | B1 |

target: T2, SmB C-terminal region, residues 167-231, wild type (human, UniProt P14678-2 167-231); assay: as above; details: both partners purified
T2 construct: source: E. coli BL21, purified (Ni-NTA, TEV cleavage, gel filtration); not shown: His6, N-terminal, cleaved; GST, N-terminal, cleaved

| Kd | Binder |
| --- | --- |
| 21 µM | B1 |

target: T1, SmN C-terminal tail, residues 167-240 …; assay: ITC; purified OCRE mutants (2 mM) titrated to wild type SmN (29.5 μM); ITC200, 24°C, 20 mM sodium phosphate pH 6.5, 50 mM NaCl; duplicates; details: both partners purified

| Kd | Binder |
| --- | --- |
| 172 µM | RBM5 OCRE domain (451-511) Y495A (domain or fragment, human, tripeptide left by the TEV cleavage; RBM5, human, OCRE domain, residues 451-511; source: E. coli BL21, purified (Ni-NTA, TEV cleavage, gel filtration); not shown: His6, N-terminal, cleaved) GAMGTKYAVPDTSTYQYDESSGYYYDPTTGLYYDPNSQYYYNSLTQQALYWDGEKETYVPAAES |
| 220 µM | RBM5 OCRE domain (451-511) Y488A (domain or fragment, human, tripeptide left by the TEV cleavage; RBM5, human, OCRE domain, residues 451-511; source: E. coli BL21, purified (Ni-NTA, TEV cleavage, gel filtration); not shown: His6, N-terminal, cleaved) GAMGTKYAVPDTSTYQYDESSGYYYDPTTGLYYDPNSQYYANSLTQQYLYWDGEKETYVPAAES |
| 48 µM | RBM5 OCRE domain (451-511) E501K (domain or fragment, human, tripeptide left by the TEV cleavage; RBM5, human, OCRE domain, residues 451-511; source: E. coli BL21, purified (Ni-NTA, TEV cleavage, gel filtration); not shown: His6, N-terminal, cleaved) GAMGTKYAVPDTSTYQYDESSGYYYDPTTGLYYDPNSQYYYNSLTQQYLYWDGKKETYVPAAES |
| 106 µM | RBM5 OCRE domain (451-511) Y454A/D458K (domain or fragment, human, tripeptide left by the TEV cleavage; RBM5, human, OCRE domain, residues 451-511; source: E. coli BL21, purified (Ni-NTA, TEV cleavage, gel filtration); not shown: His6, N-terminal, cleaved) GAMGTKAAVPKTSTYQYDESSGYYYDPTTGLYYDPNSQYYYNSLTQQYLYWDGEKETYVPAAES |
| 87 µM | RBM5 OCRE domain (451-511) Y495F (domain or fragment, human, tripeptide left by the TEV cleavage; RBM5, human, OCRE domain, residues 451-511; source: E. coli BL21, purified (Ni-NTA, TEV cleavage, gel filtration); not shown: His6, N-terminal, cleaved) GAMGTKYAVPDTSTYQYDESSGYYYDPTTGLYYDPNSQYYYNSLTQQFLYWDGEKETYVPAAES |
| 35 µM | RBM5 OCRE domain (451-511) Y495W (domain or fragment, human, tripeptide left by the TEV cleavage; RBM5, human, OCRE domain, residues 451-511; source: E. coli BL21, purified (Ni-NTA, TEV cleavage, gel filtration); not shown: His6, N-terminal, cleaved) GAMGTKYAVPDTSTYQYDESSGYYYDPTTGLYYDPNSQYYYNSLTQQWLYWDGEKETYVPAAES |
| 145 µM | RBM5 OCRE domain (451-511) Y486A (domain or fragment, human, tripeptide left by the TEV cleavage; RBM5, human, OCRE domain, residues 451-511; source: E. coli BL21, purified (Ni-NTA, TEV cleavage, gel filtration); not shown: His6, N-terminal, cleaved) GAMGTKYAVPDTSTYQYDESSGYYYDPTTGLYYDPNSQAYYNSLTQQYLYWDGEKETYVPAAES |
| 186 µM | RBM5 OCRE domain (451-511) Y495T (domain or fragment, human, tripeptide left by the TEV cleavage; RBM5, human, OCRE domain, residues 451-511; source: E. coli BL21, purified (Ni-NTA, TEV cleavage, gel filtration); not shown: His6, N-terminal, cleaved) GAMGTKYAVPDTSTYQYDESSGYYYDPTTGLYYDPNSQYYYNSLTQQTLYWDGEKETYVPAAES |
| 111 µM | RBM5 OCRE domain (451-511) Y479A (domain or fragment, human, tripeptide left by the TEV cleavage; RBM5, human, OCRE domain, residues 451-511; source: E. coli BL21, purified (Ni-NTA, TEV cleavage, gel filtration); not shown: His6, N-terminal, cleaved) GAMGTKYAVPDTSTYQYDESSGYYYDPTTGLAYDPNSQYYYNSLTQQYLYWDGEKETYVPAAES |
